Laboratory results: patent publication US20090226428A1 (CEPHALON AUSTRALIA, published 2009)
Where a chain is given by its changes, count along the chain named.

B1: Compound 100 (other)
VL: DIQMTQSPSSLSASVGDRVTITCRASQSIDSYLHWYQQKPGKAPKLLIYSASNLETGVPSRFSGSGSGTDFTLTISSLLPEDFATYYCQQVVWRPFTFGQGTKVEIKR
B2: Compound 123 (other)
VL: B1 VL with S28A, L79Q
B3: Acceptor dAb (Compound 128) (other)
VL: B1 VL with N53E, E55Q, T56S, L79Q
notes: also called acceptor variable region (anti-TNF domain antibody)
B4: Compound 145 (marmoset CDR-grafted dAb) (other)
VL: B1 VL with L79Q
notes: also called parent dAb

Key:
human TNF-α [1] = target: T1, human TNF-α (human, UniProt P01375 77-233); experiment: cell-based or functional assay
human TNF-α [2] = target: T1, human TNF-α; experiment: receptor binding assay (ELISA): dAb mixed with TNF (10 ng/ml), binding of TNF to captured TNF receptor 1 Fc fusion protein detected; blocked partner TNF receptor 1-Fc
Experimental: dAbs diversified in the 14 selected positions were tested for the ability to inhibit the binding of TNF to recombinant TNF receptor 1 (p55). Briefly, Maxisorp plates were incubated overnight with […] anti-human Fc mouse monoclonal antibody (Zymed, San Francisco, USA). The wells were washed with phosphate buffered saline (PBS) containing 0.05% Tween-20 and then blocked with 1% BSA in PBS before being incubated with 100 ng/ml TNF receptor 1 Fc fusion protein (R&D Systems, Minneapolis, USA). Each dAb was mixed with TNF which was added to the washed wells at a final concentration of 10 ng/ml. TNF binding was detected with 0.2 mg/ml biotinylated anti-TNF antibody (HyCult biotechnology, Uben, Netherlands) followed by 1 in 500 dilution of horse radish peroxidase labelled streptavidin (Amersham Biosciences, UK) and then incubation with TMB substrate (KPL, Gaithersburg, USA). The reaction was stopped by the addition of HCl and the absorbance was read at 450 nm. Anti-TNF dAb activity lead to a decrease in TNF binding and therefore a decrease in absorbance compared with the TNF only control (FIG. 5).

T1 sequence (P01375 77-233 limits assumed): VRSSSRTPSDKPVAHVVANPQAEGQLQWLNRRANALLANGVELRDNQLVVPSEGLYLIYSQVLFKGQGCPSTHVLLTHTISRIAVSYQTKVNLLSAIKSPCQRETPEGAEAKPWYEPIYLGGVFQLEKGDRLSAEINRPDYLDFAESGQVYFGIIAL

| Binder | EC50 (read off the curve); L929 cytotoxicity assay, cell viability (% control) (human TNF-α [1]) | IC50 (read off the curve) (human TNF-α [2]) |
| --- | --- | --- |
| B1 | ~50 nM | – |
| B2 | ~50 nM | – |
| B3 | – | ~30 nM |
| B4 | – | ~30 nM |
